From patent publication US20230212319A1, “NOVEL ANTIGEN BINDING DOMAINS AND SYNTHETIC ANTIGEN RECEPTORS INCORPORATING THE SAME” (University of Southern California, priority 2020, published 2023)

B1: 22029 (protein)
chain: MALPVTALLLPLALLLHAARPQLQLQESGPGLVKPSETLSLTCTVSGDSISSGDYYWGWIRQPPGKGLEWIGHIYYSGVTYYNPSLKSRVTISVDTSRNQFSLKLSSVTAADTAVYYCTREDSSNWRSRGQGTLVTVSSLEDKTHTCPPCPAPIKTDVITMDPKDNCSKDANDTLLLQLTNTSAYYMYLLLLLKSVVYFAIITCCLLRRTAFCCNGEKSRAKRSGSGATNFSLLKQAGDVEENPGPTSMDWIWRILFLVGAATGAHSFEVQLVESGGGVVQPGRSLRLSCAASGFSFSGYGMHWVRQAPGKGLEWVAYISYDGSNKYYADSVKGRFTISRDNSKNTLYLQMNSLRAEDTAVYYCAKDPAWGLRLGESSSYDFDIWGQGTMVTVSSTRIQNPDPAVYQLRDSKSSDKSVCLFTDFDSQTNVSQSKDSDVYITDKCVLDMRSMDFKSNSAVAWSNKSDFACANAFNNSIIPEDTFFPSPESSCDVKLVEKSFETDTNLNFQNLSVIGFRILLLKVAGFNLLMTLRLWSSRAKRSGSGVKQTLNFDLLKLAGDVESNPGPSRGHMTEYKPTVRLATRDDVPRAVRTLAAAFADYPATRHTVDPDRHIERVTELQELFLTRVGLDIGKVWVADDGAAVAVWTTPESVEAGAVFAEIGPRMAELSGSRLAAQQQMEGLLAPHRPKEPAWFLATVGVSPDHQGKGLGSAVVLPGVEAAERAGVPAFLETSAPRNLPFYERLGFTVTADVEVPEGPRTWCMTRKPGA
B2: 22048 (protein)
chain: MALPVTALLLPLALLLHAARPQVQLVESGGGLVQPGGSLRLSCAASGFTFTNHAMSWVRQAPGKGLELVSSISGNGRTTYYADSVKGRFTISRDISKNTLDLQMNSLRAEDTAVYYCAKDGGETLVDSRGQGTLVTVSSLEGQPKANPTVTLFPPSSEELQANKATLVCLISDFYPGAVTVAWKADGSPVKAGVETTKPSKQSNNKYAASSYLSLTPEQWKSHRSYSCQVTHEGSTVEKTVAPTECSPIKTDVITMDPKDNCSKDANDTLLLQLTNTSAYYMYLLLLLKSVVYFAIITCCLLRRTAFCCNGEKSRAKRSGSGATNFSLLKQAGDVEENPGPTSMDWIWRILFLVGAATGAHSFEEVQLLESGGGLVQPGGSLRLSCAASGFTFSSYAMSWVRQAPGKGLEWVSSISGSGDYIYYADSVKGRFTISRDISKNTLYLQMNSLRAEDTAVYYCAKEGTGANSSLADYRGQGTLVTVSSTRASTKGPSVFPLAPSSKSTSGGTAALGCLVKDYFPEPVTVSWNSGALTSGVHTFPAVLQSSGLYSLSSVVTVPSSSLGTQTYICNVNHKPSNTKVDKRVEPKSCEVKTDSTDHVKPKETENTKQPSKSCHKPKAIVHTEKVNMMSLTVLGLRMLFAKTVAVNFLLTAKLFFLRAKRSGSGVKQTLNFDLLKLAGDVESNPGPSRGHMTEYKPTVRLATRDDVPRAVRTLAAAFADYPATRHTVDPDRHIERVTELQELFLTRVGLDIGKVWVADDGAAVAVWTTPESVEAGAVFAEIGPRMAELSGSRLAAQQQMEGLLAPHRPKEPAWFLATVGVSPDHQGKGLGSAVVLPGVEAAERAGVPAFLETSAPRNLPFYERLGFTVTADVEVPEGPRTWCMTRKPGA
B3: 22050 (protein)
chain: B2 chain
B4: 22034 (protein)
chain: MALPVTALLLPLALLLHAARPQLQLQESGPGLVKPSETLSLTCTVSGDSISSGDYYWGWIRQPPGKGLEWIGHIYYSGVTYYNPSLKSRVTISVDTSRNQFSLKLSSVTAADTAVYYCTREDSSNWRSRGQGTLVTVSSLESGGGGSFEEVQLLESGGGLVQPGGSLRLSCAASGFTFSSYAMSWVRQAPGKGLEWVSSISGSGDYIYYADSVKGRFTISRDISKNTLYLQMNSLRAEDTAVYYCAKEGTGANSSLADYRGQGTLVTVSSTREQKLISEEDGSGIQNPDPAVYQLRDSKSSDKSVCLFTDFDSQTNVSQSKDSDVYITDKCVLDMRSMDFKSNSAVAWSNKSDFACANAFNNSIIPEDTFFPSSDVPCDVKLVEKSFETDTNLNFQNLSVIGFRILLLKVAGFNLLMTLRLWSSRAKRSGSGVKQTLNFDLLKLAGDVESNPGPSRGRMAKPLSQEESTLIERATATINSIPISEDYSVASAALSSDGRIFTGVNVYHFTGGPCAELVVLGTAAAAAAGNLTCIVAIGNENRGILSPCGRCRQVLLDLHPGIKAIVKDSDGQPTAVGIRELLPSGYVWEG
B5: 22025 (protein)
chain: MALPVTALLLPLALLLHAARPQLQLQESGPGLVKPSETLSLTCTVSGDSISSGDYYWGWIRQPPGKGLEWIGHIYYSGVTYYNPSLKSRVTISVDTSRNQFSLKLSSVTAADTAVYYCTREDSSNWRSRGQGTLVTVSSLEDKTHTCPPCPAGRADCGFTSESYQQGVLSATILYEILLGKATLYAVLVSALVLMAMVKRKDSRGRAKRSGSGATNFSLLKQAGDVEENPGPTSMDWIWRILFLVGAATGAHSFEVQLLESGGGLIQPGGSLRLSCAASGFTFSSHAMTWVRQAPGKGLEWVSAISGSGDYTHYADSVKGRFTISRDNSKNTVYLQMNSLRAEDSAVYYCAKDEDGGSLLGHRGQGTLVTVSSTRDKTHTCPPCPAIPEDTFFPSPESSCDVKLVEKSFETDTNLNFQNLSVIGFRILLLKVAGFNLLMTLRLWSSRAKRSGSGVKQTLNFDLLKLAGDVESNPGPSRGHMTEYKPTVRLATRDDVPRAVRTLAAAFADYPATRHTVDPDRHIERVTELQELFLTRVGLDIGKVWVADDGAAVAVWTTPESVEAGAVFAEIGPRMAELSGSRLAAQQQMEGLLAPHRPKEPAWFLATVGVSPDHQGKGLGSAVVLPGVEAAERAGVPAFLETSAPRNLPFYERLGFTVTADVEVPEGPRTWCMTRKPGA
B6: 22041 (protein)
chain: MALPVTALLLPLALLLHAARPQLQLQESGPGLVKPSETLSLTCTVSGDSISSGDYYWGWIRQPPGKGLEWIGHIYYSGVTYYNPSLKSRVTISVDTSRNQFSLKLSSVTAADTAVYYCTREDSSNWRSRGQGTLVTVSSLEGSGRADCGFTSESYQQGVLSATILYEILLGKATLYAVLVSALVLMAMVKRKDSRGRAKRSGSGATNFSLLKQAGDVEENPGPTSMDWIWRILFLVGAATGAHSFEVQLLESGGGLIQPGGSLRLSCAASGFTFSSHAMTWVRQAPGKGLEWVSAISGSGDYTHYADSVKGRFTISRDNSKNTVYLQMNSLRAEDSAVYYCAKDEDGGSLLGHRGQGTLVTVSSTRDKTHTCPPCPAIPEDTFFPSPESSCDVKLVEKSFETDTNLNFQNLSVIGFRILLLKVAGFNLLMTLRLWSSRAKRSGSGVKQTLNFDLLKLAGDVESNPGPSRGHMTEYKPTVRLATRDDVPRAVRTLAAAFADYPATRHTVDPDRHIERVTELQELFLTRVGLDIGKVWVADDGAAVAVWTTPESVEAGAVFAEIGPRMAELSGSRLAAQQQMEGLLAPHRPKEPAWFLATVGVSPDHQGKGLGSAVVLPGVEAAERAGVPAFLETSAPRNLPFYERLGFTVTADVEVPEGPRTWCMTRKPGA

What was measured:
L363 cells = assay: JNG assay, co-culture with L363 cells; assay type: cell-based; details: co-culture with L363
Method in brief: (§1)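 Jurkat NFAT-GFP (JNG) cells stably transduced with SARs by lentivirus, with drug selection where the construct carried a resistance gene, then co-cultured with target cells at E:T ~1:2 for ~4–18 h. % GFP-positive cells measured by FACS against parental JNG; +/- to 5+ correspond to ~5–50% GFP-positive.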

RAJI cells = assay: JNG assay, co-culture with RAJI cells; assay type: cell-based; details: JNG cells expressing construct, co-culture with Raji
Method in brief: as §1

| Molecule | NFAT-GFP ASSAY: L363 (L363 cells) | NFAT-GFP ASSAY: Raji (RAJI cells) |
| --- | --- | --- |
| B1 | + (refer to approximately 5%, 10%, 20%, 30%, 40% and 50% GFP positive cells) | +/- (refer to approximately 5%, 10%, 20%, 30%, 40% and 50% GFP positive cells) |
| B2 | +/- (refer to approximately 5%, 10%, 20%, 30%, 40% and 50% GFP positive cells) | + (refer to approximately 5%, 10%, 20%, 30%, 40% and 50% GFP positive cells) |
| B3 | +/- (refer to approximately 5%, 10%, 20%, 30%, 40% and 50% GFP positive cells) | + (refer to approximately 5%, 10%, 20%, 30%, 40% and 50% GFP positive cells) |
| B4 | +/- (refer to approximately 5%, 10%, 20%, 30%, 40% and 50% GFP positive cells) | +/- (refer to approximately 5%, 10%, 20%, 30%, 40% and 50% GFP positive cells) |
| B5 | + (refer to approximately 5%, 10%, 20%, 30%, 40% and 50% GFP positive cells) | +/- (refer to approximately 5%, 10%, 20%, 30%, 40% and 50% GFP positive cells) |
| B6 | + (refer to approximately 5%, 10%, 20%, 30%, 40% and 50% GFP positive cells) | + (refer to approximately 5%, 10%, 20%, 30%, 40% and 50% GFP positive cells) |
